Test results from patent US20230360747A1.

Biological target: SARS-CoV-2 RBD (40592-VO8H, Sino Biological), Alexa Fluor 647 labelled (SARS-CoV-2) (UniProt P0DTC2)

SARS-CoV-2 (2019-nCoV) spike antibody (40150-R007, Sino Biological)
Kd: 9.6 nM
